# The supplement of paper PMC7877785
# ± gives the uncertainty stated by the source.
# Assay: self-splicing fitness, log relative to wild type (ln ratio); higher = more splicing; Tetrahymena group I intron in knt gene, E. coli kanamycin selection, DiMSum; sequences stand for … in CUCUCU…GGAGGGAAAAGUUAUCAGGCAUGCACCUGGUAGCUAGUCUUUAAACCAAUAGAUUGCAUCGGUUUAAAAGGCAAGACCGUCAAAUUGCGGGAAAGGGGUCAACAGCCGUUCAGUACCAAGUCUCAGGGGAAACUUUGAGAUGGCCUUGCAAAGGGUAUGGUAAUAAGCUGACGGACAUGGUCCUAACCACGCAGCCAAGUCCUAAGUCAACAGAUCUUCUGUUGAUAUGGAUGCAGUUCACAGACUAAAUGUCGGUCGGGGAAGAUGUAUUCUUCUCAUAAGAUAUAGUCGGACCUCUCCUUAAUGGGAGCUAGCGGAUGAAGUGAUGCAACACUGGAGCCGCUGGGAACUAAUUUGUAUGCGAAAGUAUAUUGAUUAGUUUUGGAGUACUCGUGGUCG
# How it was run: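 Fitness was computed with DiMSum as the error-weighted combination of replicate fold changes, kanamycin versus none, each normalised to wild type. The library randomised all eight intron nucleotides of the P1ex region, with the intron placed in the knt kanamycin-resistance gene on pET-22b(+) in E. coli BL21(DE3). Six replicate transformations were grown overnight at 37°C or 30°C on LB agar with or without 25 μg/mL kanamycin, plus 100 μg/mL carbenicillin, 50 μM IPTG and 0.2% rhamnose. Pooled colonies were amplicon-sequenced on an Illumina HiSeq 2500.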
Sequence,self-splicing fitness (ln) (30 °C),self-splicing fitness (ln) (37 °C)
GGACAGCAAUAUUACGGACA,-0.509 ± 0.11,-0.307 ± 0.11
GGACAGCAAUAUUACGGACU,-1.01 ± 0.079,-0.461 ± 0.09
GGACAGCAAUAUUACGGCAU,-0.228 ± 0.053,0.0818 ± 0.068
GGACAGCAAUAUUACGGCGG,-2.64 ± 0.13,-1.52 ± 0.13
GGACAGCAAUAUUACGGGUG,-2.51 ± 0.097,-1.64 ± 0.1
GGACAGCAAUAUUACGUAUG,-1.13 ± 0.073,-0.419 ± 0.08
GGACAGCAAUAUUACGUCCG,-2.1 ± 0.12,-1.89 ± 0.18
GGACAGCAAUAUUACGUCUC,-4.03 ± 0.18,-2.57 ± 0.2
GGACAGCAAUAUUACGUGGU,-2.9 ± 0.12,-1.08 ± 0.11
GGACAGCAAUAUUACGUGUU,-3.42 ± 0.13,-2.44 ± 0.2
GGACAGCAAUAUUACGUUUA,-0.44 ± 0.059,0.258 ± 0.077
GGAGAGCAAUAUUACGACUC,-1.21 ± 0.23,-0.0732 ± 0.34
GGAGAGCAAUAUUACGACUG,,-1.15 ± 0.27
GGAGAGCAAUAUUACGAGCC,-2.64 ± 0.49,
GGAGAGCAAUAUUACGAGCG,,-1.86 ± 0.37
GGAGAGCAAUAUUACGAUAG,,-1.94 ± 0.28
GGAGAGCAAUAUUACGAUCA,-1.04 ± 0.16,-1.73 ± 0.25
GGAGAGCAAUAUUACGCAAU,-3.02 ± 0.2,-2.55 ± 0.31
GGAGAGCAAUAUUACGCGUG,-3.84 ± 0.33,-2.53 ± 0.18
GGAGAGCAAUAUUACGCUCC,,-1.68 ± 0.45
GGAGAGCAAUAUUACGCUCG,-2.7 ± 0.24,-2.45 ± 0.19
GGAGAGCAAUAUUACGCUUA,-2.12 ± 0.14,-0.41 ± 0.14
GGAGAGCAAUAUUACGGAGU,,-2.68 ± 0.31
GGAGAGCAAUAUUACGGCAA,-2.75 ± 0.47,-1.59 ± 0.43
GGAGAGCAAUAUUACGGUUG,-2.38 ± 0.22,-2.05 ± 0.38
GGAGAGCAAUAUUACGUCGG,-4.62 ± 0.39,-3.75 ± 0.3
GGAGAGCAAUAUUACGUCUA,-1.23 ± 0.13,-1.4 ± 0.1

Sequence,self-splicing fitness (ln) (30 °C),self-splicing fitness (ln) (37 °C)
GGAGAGCAAUAUUACGUGAG,-3.33 ± 0.23,-1.56 ± 0.2
GGAGAGCAAUAUUACGUGCC,,-2.38 ± 0.42
GGAGAGCAAUAUUACGUGGC,,-1.63 ± 0.25
GGAGAGCAAUAUUACGUUCU,-3.27 ± 0.25,-3.5 ± 0.39
GGAGAGCAAUAUUACGUUUG,,-2.01 ± 0.38
GGAUAGCAAUAUUACGAACA,-1.95 ± 0.19,0.22 ± 0.15
GGAUAGCAAUAUUACGAACG,0.209 ± 0.14,-0.196 ± 0.18
GGAUAGCAAUAUUACGAAUA,,0.53 ± 0.21
GGAUAGCAAUAUUACGACAG,-4.21 ± 0.37,-2.36 ± 0.29
GGAUAGCAAUAUUACGACCG,-1.59 ± 0.26,-1.08 ± 0.28
GGAUAGCAAUAUUACGACGA,-1.43 ± 0.12,-0.57 ± 0.1
GGAUAGCAAUAUUACGACGG,,-2.87 ± 0.48
GGAUAGCAAUAUUACGACUC,-0.498 ± 0.16,0.298 ± 0.23
GGAUAGCAAUAUUACGAGAG,-1.8 ± 0.23,-3.09 ± 0.47
GGAUAGCAAUAUUACGAGCG,-0.76 ± 0.1,-0.0359 ± 0.088
GGAUAGCAAUAUUACGAGUG,-3.38 ± 0.22,-1.41 ± 0.14
GGAUAGCAAUAUUACGAUAC,-1.23 ± 0.13,-1.8 ± 0.16
GGAUAGCAAUAUUACGAUGA,-1.04 ± 0.15,-0.858 ± 0.14
GGAUAGCAAUAUUACGCAUA,-1.88 ± 0.45,-2.04 ± 0.39
GGAUAGCAAUAUUACGCCUC,-2.02 ± 0.32,
GGAUAGCAAUAUUACGGCAC,-1.16 ± 0.14,-0.0176 ± 0.17
GGAUAGCAAUAUUACGGCAU,-0.507 ± 0.09,0.598 ± 0.11
GGAUAGCAAUAUUACGGGUA,-2.41 ± 0.16,0.0404 ± 0.13
GGAUAGCAAUAUUACGGGUC,-4.23 ± 0.46,-2.64 ± 0.29
GGAUAGCAAUAUUACGUCCA,-1.4 ± 0.17,-0.317 ± 0.19
GGAUAGCAAUAUUACGUGAC,-2.63 ± 0.35,-1.46 ± 0.26
GGAUAGCAAUAUUACGUGCA,-1.3 ± 0.11,0.203 ± 0.12

Sequence,self-splicing fitness (ln) (30 °C),self-splicing fitness (ln) (37 °C)
GGAUAGCAAUAUUACGUUAU,-4.06 ± 0.24,-3.28 ± 0.23
GGAUAGCAAUAUUACGUUUA,-1.02 ± 0.16,0.714 ± 0.14
GGCAAGCAAUAUUACGAGAA,-1.8 ± 0.29,-1.74 ± 0.26
GGCAAGCAAUAUUACGAGAG,-3.94 ± 0.24,-2.26 ± 0.15
GGCAAGCAAUAUUACGAGAU,-2.56 ± 0.21,-0.168 ± 0.15
GGCAAGCAAUAUUACGAGCA,-0.434 ± 0.13,-0.381 ± 0.14
GGCAAGCAAUAUUACGCGGG,-3.73 ± 0.21,-3.23 ± 0.26
GGCAAGCAAUAUUACGGAAC,-1.46 ± 0.13,0.485 ± 0.21
GGCAAGCAAUAUUACGGACU,0.0032 ± 0.071,0.777 ± 0.096
GGCAAGCAAUAUUACGGAGC,-1.36 ± 0.2,0.0393 ± 0.25
GGCAAGCAAUAUUACGGGAA,-1.34 ± 0.12,-1.16 ± 0.13
GGCAAGCAAUAUUACGGUAC,-0.729 ± 0.072,-0.752 ± 0.09
GGCAAGCAAUAUUACGUACU,-0.208 ± 0.072,0.344 ± 0.088
GGCAAGCAAUAUUACGUCAA,-1.84 ± 0.14,-0.756 ± 0.12
GGCAAGCAAUAUUACGUCGA,-0.765 ± 0.13,-0.561 ± 0.13
GGCAAGCAAUAUUACGUCUG,-3.13 ± 0.18,-1.09 ± 0.094
GGCAAGCAAUAUUACGUGUU,-1.96 ± 0.059,-1.83 ± 0.076
GGCAAGCAAUAUUACGUUCC,-1.43 ± 0.11,-0.714 ± 0.14
GGCAAGCAAUAUUACGUUCG,-0.0493 ± 0.065,-0.196 ± 0.08
GGCAAGCAAUAUUACGUUUU,-0.0842 ± 0.054,0.186 ± 0.082
GGCCAGCAAUAUUACGAAGG,,-2.62 ± 0.33
GGCCAGCAAUAUUACGAAUC,-0.266 ± 0.11,0.822 ± 0.14
GGCCAGCAAUAUUACGAGAU,-2.68 ± 0.18,-2.82 ± 0.24
GGCCAGCAAUAUUACGAGGA,,-1.26 ± 0.15
GGCCAGCAAUAUUACGAGGU,-3.26 ± 0.45,-2.45 ± 0.32
GGCCAGCAAUAUUACGAGUA,-2.59 ± 0.12,-2.05 ± 0.12
